5 molecules from article doi:10.1101/2025.08.19.671101 (bioRxiv, 2025) can be followed below.

One experiment addresses T1, 10E8-GT10.2 (synthetic construct; HIV-1 MPER helix …, N-linked glycan density at N74/75).
T1 construct: also called MPER-GT immunogen
T1 chain: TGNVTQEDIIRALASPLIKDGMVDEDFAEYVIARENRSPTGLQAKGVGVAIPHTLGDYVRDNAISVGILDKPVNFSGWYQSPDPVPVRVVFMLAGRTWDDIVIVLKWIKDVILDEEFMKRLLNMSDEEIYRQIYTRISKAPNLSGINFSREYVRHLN
The experiment can be described thus: SPR. To be noted: both partners purified.

For the next experiment, the target named is T2, 10E8-GT12 (synthetic construct; HIV-1 MPER helix …, N-linked glycan density at N74/75).
T2 construct: also called MPER-GT immunogen
T2 chain: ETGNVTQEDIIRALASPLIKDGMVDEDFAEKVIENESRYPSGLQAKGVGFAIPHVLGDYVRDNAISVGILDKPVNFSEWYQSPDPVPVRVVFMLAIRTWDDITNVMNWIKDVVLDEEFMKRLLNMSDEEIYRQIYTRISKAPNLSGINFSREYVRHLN
The experiment can be described thus: SPR. To be noted: both partners purified.

B1: NHP-10E8_MPER-GT10v55_W3-02 (Fab, V domains shown)
VH: EVQLVESGGGLVQPGGSLKLSCAASGFTFSDHYMDWVRQAPGKGLEWVSSVSSGSGSATLYPDSVKGRFTISRDNAKNTVYLQMNSLRAEDTAVYYCARRGLYYDFWSGYSDFYYGLDSWGQGVVVTVSS
VL: DIVMTQTPLSLPITPGEPASISCRSSQSLLQSNGNTYLHWYLQKPGQSPQLLIYGGSNRASGVPDRFSGSGSGTDFTLKISKVEAEDVGVYYCVQAIAFPFTFGPGTKLDIK
notes: source: FreeStyle 293F cells, transfected, purified
One may read the Kd as a measure of binding affinity in units of concentration. A high value points to weaker binding. Turning to B1, the equilibrium dissociation constant (Kd) in the experiment with 10E8-GT10.2 worked out at 7.5 nM; in the experiment with 10E8-GT12, 3400 nM.

B2: SA684_Exp1_Scaf_MPER-GT10v55_W6-03 (Fab, V domains shown)
VH: DVQLQESGPGLVKPSQSLSLTCSVTGYSITSGYYWNWIRQFPGNKLEWMGYISYDGSNNYNPSLKNRISITRDTSQNQFFLKLNSVTTEDTASYYCAREGPYYDFWSGYYAYYMDVWGKGTTVTVSS
VL: DIVMSQSPSSLAVSVGEKVTMSCKSSQSLLYSSNQKNYLAWYQQKPGQSPKLLIYWASTRKSGVPDRFTGSGSGTDFTLTISSVKAEDLAVYYCQQYFGYPLTFGAGTKLELK
notes: as for B1
As for B2, the Kd in the experiment with 10E8-GT10.2 amounted to 9 nM; with 10E8-GT12, 8.5 nM.

B3: SA684_Exp1_Scaf_MPER-GT12v56_W6-10 (Fab, V domains shown)
VH: QVTLKESGPGILQPSQTLSLTCSFSGFSLSTFGMGVGWIRQPSGKGLEWLAHIWWDDDKFYNPALKSRLTISKDTSKNQVFLKIANVDTADTATYYCARIGEDYFLDVWGKGTTVTVSS
VL: DIQMTQSPASLSASVGETVTITCRASGNIHNYLAWYQQKQGKSPQLLVYNAKTLADGVPSRFSGSGSGTQYSLKINSLQPEDFGSYYCQHFWSAPYTFGGGTNLEIK
notes: also called off-target mouse Fab W6-10; source: FreeStyle 293F cells, transfected, purified
With B3, the Kd with 10E8-GT10.2 is 3 nM; with 10E8-GT12 it was 1.8 nM.

B4: NHP-10E8_MPER-GT10v55_W3-05 (Fab, V domains shown)
VH: EVQLVESGGGLVQPGGSLRLSCAASGFTFSNYWMSWVRQAPGKGLEWVGFIKNKADGGTAAYAESVKGRFTISRDDSKNTLYLQMNSLKTEDTAVYYCARDLGRYNFWSGFYSQNRFDVWGPGVLVTVSS
VL: SYEVTQPPSVSVSPGQMARITCGGDNLGSKYVHWYQQKPAQAPVLVIYDDSERPSGIPERFSGSKSGNTATLTISGVEAGDEADYYCQVWDSSSDHPLFGGGTRLTVL
notes: as for B1
As to B4, the Kd with 10E8-GT10.2 came out at 19 nM; with 10E8-GT12, 490 nM.

B5: SA2102_10E8-like_2911_Fab (Fab, V domains shown)
VH: QVQLKQSGPGLVQPSQSLSITCTVSGFSLTSYGVHWVRQSPGKGLEWLGVIWSGGSTDYNAAFISRLSISKDNSKSQVFFKMNSLQADDTAIYYCARAPPYYDFWSGYSYYYYYMDVWGKGTTVTV
VL: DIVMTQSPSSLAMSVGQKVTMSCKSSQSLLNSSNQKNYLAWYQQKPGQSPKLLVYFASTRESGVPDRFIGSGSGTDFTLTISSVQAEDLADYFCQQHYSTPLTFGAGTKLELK
notes: also called SA2911; source: FreeStyle 293F cells, transfected, purified
On to B5, for which the dissociation constant (Kd) with 10E8-GT10.2 was 787 nM; in the experiment with 10E8-GT12 it was 534 nM.
